Measurements: the supplement of paper PMC12042874
± gives the uncertainty stated by the source.

Test: amyloid nucleation score (Sup35N fusion, yeast selection) (log enrichment); library NNK1; higher = more nucleation; inactive = no reads after selection
Outline: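 Using DiMSum, nucleation scores were taken as the log enrichment of output over input reads, centred on the mode score of non-aggregating sequences. The input and output reads came from Illumina sequencing of plasmid inserts, with sequences under 100 input reads excluded. The yeast were psi-negative, expressed Sup35N fused to peptides of 20 random codons, were induced with 100 μM copper sulfate for 24 hours, and were grown 7 days at 30°C on medium lacking adenine and uracil.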

Question: Which amyloid nucleation score does the source give for DPAYEQGGLFEVGTIHCNIK here?
Answer: 0.527 ± 0.46

Question: Which amyloid nucleation score does the source give for KKDTDRSIVFVSLYSPDSKA here?
Answer: -0.064 ± 0.5

Question: With SCQIGLPVLTYRTATVGHKS as the substance, how does the amyloid nucleation score read?
Answer: 0.06 ± 1

Question: For RGNSFIRRY, which amyloid nucleation score is on record?
Answer: 0.285 ± 0.47

Question: For TNHDMAINLVQQLDC, which amyloid nucleation score is on record?
Answer: 1.67 ± 0.61

Question: With RVISPSCKWDQCSPMCS as the substance, how does the amyloid nucleation score read?
Answer: -0.499 ± 1.1

Question: Which amyloid nucleation score does the source give for ARITMYLCFNRLLVGKVCSG here?
Answer: -0.176 ± 1.1

Question: With FNRLSCFFSKSHPVQTGYNS as the substance, how does the amyloid nucleation score read?
Answer: -0.01 ± 0.51

Question: For SSFRYVCCASRCRETSELLG, which amyloid nucleation score is on record?
Answer: 0.142 ± 0.5

Question: Which amyloid nucleation score does the source give for MVFRGFHKSQLGSFELAVGG here?
Answer: 0.428 ± 0.76

Question: With VYCCLNFLAFNFSWV as the substance, how does the amyloid nucleation score read?
Answer: 6.308 ± 0.063

Question: For IKSVMDWSSCTEL, which amyloid nucleation score is on record?
Answer: -0.144 ± 0.33

Question: Which amyloid nucleation score does the source give for LCSDIG here?
Answer: -0.09 ± 0.4

Question: For DVGMLV, which amyloid nucleation score is on record?
Answer: -0.107 ± 0.31

Question: Which amyloid nucleation score does the source give for DSINCCMMCYEK here?
Answer: 7.567 ± 0.071

Question: Which amyloid nucleation score does the source give for SQTNSIISCLERFAGGLVLI here?
Answer: 0.349 ± 0.55

Question: With QATYCGLIIPSGLIYPDYTV as the substance, how does the amyloid nucleation score read?
Answer: -0.442 ± 0.54

Question: For IGYRYQSMLGCEGGRWWWVV, which amyloid nucleation score is on record?
Answer: 0.45 ± 0.58

Question: Which amyloid nucleation score does the source give for PNMGREYKIGTGHYYEQFFH here?
Answer: -0.082 ± 0.17

Question: With PLLQKSWIRALSFFVNHTS as the substance, how does the amyloid nucleation score read?
Answer: 0.126 ± 0.51

Question: With AHFVRVDHNGGGLCMLGISR as the substance, how does the amyloid nucleation score read?
Answer: -1.21 ± 0.86

Question: With YPGNSGSIY as the substance, how does the amyloid nucleation score read?
Answer: -0.266 ± 0.91

Question: For CFSRHAICT, which amyloid nucleation score is on record?
Answer: -0.863 ± 0.88

Question: For AIRPSIR, which amyloid nucleation score is on record?
Answer: -0.318 ± 0.33

Question: For TSALWEVLW, which amyloid nucleation score is on record?
Answer: 0.191 ± 0.58

Question: With CRCTVNHVMVRLSRGCRDAH as the substance, how does the amyloid nucleation score read?
Answer: inactive

Question: With SFEKKSVPNSANLGATVLPN as the substance, how does the amyloid nucleation score read?
Answer: 0.196 ± 0.38

Question: Which amyloid nucleation score does the source give for PDRDYFLFFTLHCVCSSFAE here?
Answer: inactive

Question: Which amyloid nucleation score does the source give for SYLDLRLAVCHCNGA here?
Answer: 5.38 ± 0.055

Question: With RIVLILRSNHCQNSY as the substance, how does the amyloid nucleation score read?
Answer: 0.641 ± 0.3

Question: With PRLARMLLHDGAEYDCELSC as the substance, how does the amyloid nucleation score read?
Answer: -0.963 ± 1.2

Question: Which amyloid nucleation score does the source give for VVVWVFHFYAC here?
Answer: 1.16 ± 0.71

Question: Which amyloid nucleation score does the source give for LQEVSWYSTVALTLSNLKWG here?
Answer: -0.389 ± 0.46

Question: Which amyloid nucleation score does the source give for YRIPLARMWMVTLPL here?
Answer: -0.317 ± 0.8

Question: With AWKKFSWDRLSKP as the substance, how does the amyloid nucleation score read?
Answer: 5.16 ± 0.072

Question: For NPSGFRSTEWYV, which amyloid nucleation score is on record?
Answer: -0.421 ± 0.56

Question: Which amyloid nucleation score does the source give for IQLILSSAEFFSLAGSREYR here?
Answer: 2.43 ± 0.22

Question: For CHGKESRTVREVHDLLVYVS, which amyloid nucleation score is on record?
Answer: -0.408 ± 0.78

Question: With LPWPRNRFCTLIDEIHTPVY as the substance, how does the amyloid nucleation score read?
Answer: -0.167 ± 0.57

Question: Which amyloid nucleation score does the source give for YYTCSSETM here?
Answer: 0.811 ± 0.39

Question: For NGEILSTLDDVTMLRIRTTC, which amyloid nucleation score is on record?
Answer: 0.071 ± 0.41

Question: For WDHLRGLTCNVFIMIVKSFF, which amyloid nucleation score is on record?
Answer: 1.4 ± 0.36

Question: For VLCLWISGLPVLCSVCDPLV, which amyloid nucleation score is on record?
Answer: 0.1 ± 0.45

Question: Which amyloid nucleation score does the source give for CVHYLYEILQGILLNYSFLL here?
Answer: -0.737 ± 0.4

Question: With VVLRSGINL as the substance, how does the amyloid nucleation score read?
Answer: -0.561 ± 0.29

Question: Which amyloid nucleation score does the source give for LLAEASLVKETTLCYHSPSL here?
Answer: 0.04 ± 0.56

Question: For YLGSWIKHRHAQWIARVRNR, which amyloid nucleation score is on record?
Answer: 0.508 ± 0.29

Question: With KAEYSDLASFGCHGHEEGGG as the substance, how does the amyloid nucleation score read?
Answer: 0.793 ± 1

Question: Which amyloid nucleation score does the source give for FRDYLAKPCGGWEEYLVDDT here?
Answer: 0.68 ± 0.48

Question: Which amyloid nucleation score does the source give for QVWITWVGRKLPHRGKTVGN here?
Answer: -0.379 ± 0.53

Question: For SCTASMASPNLEF, which amyloid nucleation score is on record?
Answer: inactive

Question: For QGWKGSC, which amyloid nucleation score is on record?
Answer: -0.385 ± 1.4

Question: For PAPPAQHIYVQRVYSFCQRG, which amyloid nucleation score is on record?
Answer: -0.161 ± 0.9

Question: Which amyloid nucleation score does the source give for FVADGLAPFLPMTVPLVGIK here?
Answer: -1.06 ± 2.4

Question: Which amyloid nucleation score does the source give for WGSSLRRTYMFYLDFDGWVN here?
Answer: -0.405 ± 1.7

Question: Which amyloid nucleation score does the source give for SKMILEV here?
Answer: inactive

Question: With PVKNRYTHR as the substance, how does the amyloid nucleation score read?
Answer: inactive

Question: With EAMLKFTVYTIVRSFNAKSR as the substance, how does the amyloid nucleation score read?
Answer: 1.11 ± 0.32

Question: With GISNSMVRHYLCTTFIYKDA as the substance, how does the amyloid nucleation score read?
Answer: 3.51 ± 0.066

Question: Which amyloid nucleation score does the source give for RIRIVNITGAESPMLCLNHE here?
Answer: 4.42 ± 0.12

Question: With IFNSATSTCNSRYIYIK as the substance, how does the amyloid nucleation score read?
Answer: 4.26 ± 0.074

Question: For VDNDLGQLPGMW, which amyloid nucleation score is on record?
Answer: -0.561 ± 1.7

Question: With HPSTRCAVANDNIWPLSGPR as the substance, how does the amyloid nucleation score read?
Answer: 0.628 ± 0.75

Question: Which amyloid nucleation score does the source give for VLQDSGIAAYKYSGSCDCSF here?
Answer: -1.07 ± 0.58

Question: With PLRASRTMTSGKLQPNLRRK as the substance, how does the amyloid nucleation score read?
Answer: 0.035 ± 0.76

Question: Which amyloid nucleation score does the source give for YWWKMLERQTRS here?
Answer: 0.374 ± 0.9

Question: For RFCISNARRRFLRPFGSYL, which amyloid nucleation score is on record?
Answer: 0.072 ± 1.1

Question: Which amyloid nucleation score does the source give for KSQDKRYLSIPGCVLSFWGE here?
Answer: 0.069 ± 0.46

Question: Which amyloid nucleation score does the source give for FFTVSVYLHVRGVAYESAAA here?
Answer: 0.252 ± 0.32

Question: With KVYYYKPLIRNPTSFLITIL as the substance, how does the amyloid nucleation score read?
Answer: 0.817 ± 0.47

Question: For IGSRIKA, which amyloid nucleation score is on record?
Answer: 1.04 ± 0.19

Question: With NYMWSQPLLYFECGRDQWLA as the substance, how does the amyloid nucleation score read?
Answer: 2.92 ± 0.11

Question: For HSCAFNESHVFMHILCVISQ, which amyloid nucleation score is on record?
Answer: -0.319 ± 0.44

Question: Which amyloid nucleation score does the source give for YGNLYCQTFLVWCRNIFLLI here?
Answer: 0.255 ± 0.41

Question: Which amyloid nucleation score does the source give for AVSDVTVIRRCMFIG here?
Answer: 0.448 ± 0.47

Question: For IASSSTRFLYV, which amyloid nucleation score is on record?
Answer: 0.813 ± 0.51

Question: Which amyloid nucleation score does the source give for ATMVMELMVSELGLEEVFDV here?
Answer: -0.216 ± 0.49

Question: For TVAGVR, which amyloid nucleation score is on record?
Answer: 0.174 ± 0.4

Question: For TSPPSKIAVRCGWDSMSLR, which amyloid nucleation score is on record?
Answer: 0.309 ± 0.6

Question: Which amyloid nucleation score does the source give for GKYKI here?
Answer: -0.476 ± 0.63

Question: For ISDCNRMFTSLSWDMSSPLI, which amyloid nucleation score is on record?
Answer: 1.75 ± 0.57

Question: With FYDPALMSITNSD as the substance, how does the amyloid nucleation score read?
Answer: 1.73 ± 0.15

Question: With CDCTNT as the substance, how does the amyloid nucleation score read?
Answer: -0.78 ± 1.4

Question: For SNKFKPVWRVLMSRVSVEAW, which amyloid nucleation score is on record?
Answer: -0.133 ± 0.68

Question: Which amyloid nucleation score does the source give for LFATYLAFKFY here?
Answer: -0.356 ± 1

Question: For TAIRWHFGNFVIDNIRNRGI, which amyloid nucleation score is on record?
Answer: 1.25 ± 0.19

Question: With DMLRMVRYTVWVSRVRSHGW as the substance, how does the amyloid nucleation score read?
Answer: 3.07 ± 0.079

Question: With LLSCSYMKIVFI as the substance, how does the amyloid nucleation score read?
Answer: 1.47 ± 0.16
